This test deals with HLA-DPB1*0101 (human (endogenous in VAVY)). The experiment in a line: radioligand binding.

… A7W (peptide) showed an other of 3.1.
